Reference: patent publication US20140228277A1 (Genentech, published 2014)
Starred links: 1 amine or outer side, 2 acyl side, 3 side chain; linkers in the order of their positions; H or OH if unused. Positions of bridges follow the written chain, without caps; N, C: chain ends. NH(CH2)3(OCH2CH2)2O(CH2)3NH = C(CN[*:1])COCCOCCOCCCN[*:2]

Assays:
[1] = molecular target: T1, human BACE1 extracellular domain (residues 22-457), wild type, C-terminal His8 (human, UniProt P56817 22-457); assay: ELISA; biotinylated BACE020 on plate-coated BACE1 ECD (WT, the reference)
T1 construct: Expressed in CHO cells with the BACE1 signal peptide; also called WT; BACE1 ECD
T1 sequence (P56817 other isoform, or with tags, fused parts or gaps): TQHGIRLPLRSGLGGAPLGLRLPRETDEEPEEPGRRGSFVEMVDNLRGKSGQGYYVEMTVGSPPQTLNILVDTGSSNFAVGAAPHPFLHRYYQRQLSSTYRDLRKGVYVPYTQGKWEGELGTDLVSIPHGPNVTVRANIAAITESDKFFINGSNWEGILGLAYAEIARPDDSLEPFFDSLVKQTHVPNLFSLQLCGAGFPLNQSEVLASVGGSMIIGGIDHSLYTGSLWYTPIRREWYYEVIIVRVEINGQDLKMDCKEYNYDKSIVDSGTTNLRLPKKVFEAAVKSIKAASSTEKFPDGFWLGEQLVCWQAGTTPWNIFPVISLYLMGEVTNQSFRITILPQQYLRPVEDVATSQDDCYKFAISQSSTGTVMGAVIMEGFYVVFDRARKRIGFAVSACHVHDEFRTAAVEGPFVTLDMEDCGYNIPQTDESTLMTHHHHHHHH
Description: (§1) Maxisorp microtiter plates (Nalge Nunc International, Rochester, N.Y.) were coated overnight at 4° C. with 2 μg/ml BACE1 mutant in 50 mM carbonate, pH 9.6. The coated wells were washed with buffer (PBS, 0.05% Polysorbate 20) and blocked with assay buffer (PBS, pH 7.4, 0.5% BSA, 0.05% Tween 20, 15 ppm Proclin) for 1 h at room temperature with gentle shaking. […] After washing, the amount of peptide bound to the plate was detected by the addition of Streptavidin-Horseradish Peroxidase Conjugate (GE Healthcare, Piscataway, N.J.) followed by the addition of TMB/H₂O₂ substrate (KPL, Gaithersburg, Md.). The reaction was quenched with 1 M phosphoric acid and the A₄₅₀ measured on a Molecular Devices SpectraMax Plus384 microplate reader. Concentrations to give half maximal effective concentration (EC₅₀) were determined using a 4-parameter non-linear regression curve-fitting program with Kaleidagraph (Synergy Software, Reading, Pa.). […] Concentrations to give half maximal inhibition concentration (IC₅₀) were determined using a 4-parameter non-linear regression curve-fitting program with Kaleidagraph.
(§2) The fold decrease in binding affinity was determined as the relative EC₅₀ values of EC₅₀ (mut)/EC₅₀ (WT), which are listed in Table 3.

[2] = molecular target: T2, human BACE1 ECD (22-457) N294A, His8 (human, UniProt P56817 22-457); assay: ELISA; biotinylated BACE020 on plate-coated BACE1 ECD mutant; ratio to WT
T2 construct: also called N294A (233)
T2 sequence (P56817 other isoform, or with tags, fused parts or gaps N294A N294A): as the sequence (P56817 other isoform, or with tags, fused parts or gaps) above, with N273A counted along it
Description: as §1, §2

[3] = molecular target: T3, human BACE1 ECD (22-457) G291A, His8 (human, UniProt P56817 22-457); assay: as above
T3 construct: also called G291A (230)
T3 sequence (P56817 other isoform, or with tags, fused parts or gaps G291A G291A): as the sequence (P56817 other isoform, or with tags, fused parts or gaps) above, with G270A counted along it
Description: as §1, §2

[4] = molecular target: T4, human BACE1 ECD (22-457) I179A, His8 (human, UniProt P56817 22-457); assay: as above
T4 construct: also called I179A (118)
T4 sequence (P56817 other isoform, or with tags, fused parts or gaps I179A I179A): as the sequence (P56817 other isoform, or with tags, fused parts or gaps) above, with I158A counted along it
Description: as §1, §2

[5] = molecular target: T5, human BACE1 ECD (22-457) T133A, His8 (human, UniProt P56817 22-457); assay: as above
T5 construct: also called T133A (72)
T5 sequence (P56817 other isoform, or with tags, fused parts or gaps T133A T133A): as the sequence (P56817 other isoform, or with tags, fused parts or gaps) above, with T112A counted along it
Description: as §1, §2

[6] = molecular target: T6, human BACE1 ECD (22-457) S96A, His8 (human, UniProt P56817 22-457); assay: as above
T6 construct: also called S96A (35)
T6 sequence (P56817 other isoform, or with tags, fused parts or gaps S96A S96A): as the sequence (P56817 other isoform, or with tags, fused parts or gaps) above, with S75A counted along it
Description: as §1, §2

[7] = molecular target: T7, human BACE1 ECD (22-457) K285A, His8 (human, UniProt P56817 22-457); assay: as above
T7 construct: also called K285A (224)
T7 sequence (P56817 other isoform, or with tags, fused parts or gaps K285A K285A): as the sequence (P56817 other isoform, or with tags, fused parts or gaps) above, with K264A counted along it
Description: as §1, §2

[8] = molecular target: T8, human BACE1 ECD (22-457) I171A, His8 (human, UniProt P56817 22-457); assay: as above
T8 construct: also called I171A (110)
T8 sequence (P56817 other isoform, or with tags, fused parts or gaps I171A I171A): as the sequence (P56817 other isoform, or with tags, fused parts or gaps) above, with I150A counted along it
Description: as §1, §2

[9] = molecular target: T9, human BACE1 ECD (22-457) K168A, His8 (human, UniProt P56817 22-457); assay: as above
T9 construct: also called K168A (107)
T9 sequence (P56817 other isoform, or with tags, fused parts or gaps K168A K168A): as the sequence (P56817 other isoform, or with tags, fused parts or gaps) above, with K147A counted along it
Description: as §1, §2

[10] = molecular target: T10, human BACE1 ECD (22-457) L91A, His8 (human, UniProt P56817 22-457); assay: as above
T10 construct: also called L91A (30)
T10 sequence (P56817 other isoform, or with tags, fused parts or gaps L91A L91A): as the sequence (P56817 other isoform, or with tags, fused parts or gaps) above, with L70A counted along it
Description: as §1, §2

[11] = molecular target: T11, human BACE1 ECD (22-457) G72A, His8 (human, UniProt P56817 22-457); assay: as above
T11 construct: also called G72A (11)
T11 sequence (P56817 other isoform, or with tags, fused parts or gaps G72A G72A): as the sequence (P56817 other isoform, or with tags, fused parts or gaps) above, with G51A counted along it
Description: as §1, §2

[12] = molecular target: T12, human BACE1 ECD (22-457) G74A, His8 (human, UniProt P56817 22-457); assay: as above
T12 construct: also called G74A (13)
T12 sequence (P56817 other isoform, or with tags, fused parts or gaps G74A G74A): as the sequence (P56817 other isoform, or with tags, fused parts or gaps) above, with G53A counted along it
Description: as §1, §2

[13] = molecular target: T13, human BACE1 ECD (22-457) T293A, His8 (human, UniProt P56817 22-457); assay: as above
T13 construct: also called T293A (232)
T13 sequence (P56817 other isoform, or with tags, fused parts or gaps T293A T293A): as the sequence (P56817 other isoform, or with tags, fused parts or gaps) above, with T272A counted along it
Description: as §1, §2

[14] = molecular target: T14, human BACE1 ECD (22-457) Q134A, His8 (human, UniProt P56817 22-457); assay: as above
T14 construct: also called Q134A (73)
T14 sequence (P56817 other isoform, or with tags, fused parts or gaps Q134A Q134A): as the sequence (P56817 other isoform, or with tags, fused parts or gaps) above, with Q113A counted along it
Description: as §1, §2

[15] = molecular target: T15, human BACE1 ECD (22-457) R296A, His8 (human, UniProt P56817 22-457); assay: as above
T15 construct: also called R296A (235)
T15 sequence (P56817 other isoform, or with tags, fused parts or gaps R296A R296A): as the sequence (P56817 other isoform, or with tags, fused parts or gaps) above, with R275A counted along it
Description: as §1, §2

[16] = molecular target: human BACE1 ECD (22-457) R189A, His8 (human, UniProt P56817 22-457); assay: as above
Chain of human BACE1 ECD (22-457) R189A, His8 (P56817 other isoform, or with tags, fused parts or gaps R189A R189A): as the sequence (P56817 other isoform, or with tags, fused parts or gaps) above, with R168A counted along it
Description: as §1, §2

[17] = molecular target: T16, human BACE1 ECD (22-457) T390A, His8 (human, UniProt P56817 22-457); assay: as above
T16 construct: also called T390A (329)
T16 sequence (P56817 other isoform, or with tags, fused parts or gaps T390A T390A): as the sequence (P56817 other isoform, or with tags, fused parts or gaps) above, with T369A counted along it
Description: as §1, §2

[18] = molecular target: T17, human BACE1 ECD (22-457) D93A, His8 (human, UniProt P56817 22-457); assay: as above
T17 construct: also called D93A (32)
T17 sequence (P56817 other isoform, or with tags, fused parts or gaps D93A D93A): as the sequence (P56817 other isoform, or with tags, fused parts or gaps) above, with D72A counted along it
Description: as §1, §2

Fold Decrease in Binding EC50 (Mut)/EC50 (WT) [1]: 1 fold
Fold Decrease in Binding EC50 (Mut)/EC50 (WT) [2]: 2.4 fold
Fold Decrease in Binding EC50 (Mut)/EC50 (WT) [3]: 0.8 fold
Fold Decrease in Binding EC50 (Mut)/EC50 (WT) [4]: 2.6 fold
Fold Decrease in Binding EC50 (Mut)/EC50 (WT) [5]: 1.1 fold
Fold Decrease in Binding EC50 (Mut)/EC50 (WT) [6]: 1 fold
Fold Decrease in Binding EC50 (Mut)/EC50 (WT) [7]: 4 fold
Fold Decrease in Binding EC50 (Mut)/EC50 (WT) [8]: 1020 fold
Fold Decrease in Binding EC50 (Mut)/EC50 (WT) [9]: 1 fold
Fold Decrease in Binding EC50 (Mut)/EC50 (WT) [10]: 1 fold
Fold Decrease in Binding EC50 (Mut)/EC50 (WT) [11]: 6.5 fold
Fold Decrease in Binding EC50 (Mut)/EC50 (WT) [12]: 488 fold
Fold Decrease in Binding EC50 (Mut)/EC50 (WT) [13]: 349 fold
Fold Decrease in Binding EC50 (Mut)/EC50 (WT) [14]: 1990 fold
Fold Decrease in Binding EC50 (Mut)/EC50 (WT) [15]: 70.9 fold
Fold Decrease in Binding EC50 (Mut)/EC50 (WT) [16]: 2.7 fold
Fold Decrease in Binding EC50 (Mut)/EC50 (WT) [17]: 0.9 fold
Fold Decrease in Binding EC50 (Mut)/EC50 (WT) [18]: 568 fold
B1: biotinylated BACE020 (Ac-NEESMYCRLLGIGCG-(PEG)3-biotin) (peptide)
peptide: Ac-NEESMYCRLLGIGCG-{NH(CH2)3(OCH2CH2)2O(CH2)3NH-biotin}
modifications: disulfide 7-14
notes: also called C-terminal biotin tagged BACE020 peptide
